In doi:10.1101/2021.03.31.437858:

Legend:
Test in all cases: native gel or EMSA
[1] = molecular target: complex III (CIII) (bovine (endogenous in bovine heart mitochondria))
[2] = molecular target: cytochrome c oxidase (COX), monomeric (bovine (endogenous in bovine heart mitochondria)) (UniProt P00429)
[3] = molecular target: Apoptosis Inducing Factor 1 (AIFM1) (bovine (endogenous in bovine heart mitochondria))
[4] = molecular target: complex V (CV) (bovine (endogenous in bovine heart mitochondria))

UniProt P00429, sequence (P00429 whole entry, looked up): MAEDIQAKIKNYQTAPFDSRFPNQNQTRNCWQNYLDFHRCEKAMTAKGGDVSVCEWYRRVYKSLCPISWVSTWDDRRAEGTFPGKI

**Q.** With complex III (CIII) as the substance, how does the stoichiometry N [1] read?
**A.** 2

**Q.** For “Apoptosis Inducing Factor 1 (AIFM1) (natural protein)”, which percent of monomeric COX engaged in the complex [2] is on record?
**A.** 10%

**Q.** And the stoichiometry N (AIFM1 per COX monomer) [2]?
**A.** 2

**Q.** And the stoichiometry N [3]?
**A.** 2

**Q.** How did the stoichiometry N [4] turn out when complex V (CV) was run?
**A.** 2
